{"source": "the nanobody polyreactivity screen of Harvey et al. (2022)", "data": [{"experiment": "yeast display, Sf9 membrane polyspecificity reagent, FACS + sequencing; frameworks hold sequencing errors", "method_in_brief": "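Galactose-induced (36–48 hours) yeast carrying a synthetic nanobody display library were exposed to 10% biotinylated, detergent-solubilized Sf9 membrane reagent at 4 °C for 1 hour. FACS followed streptavidin microbead enrichment, using low and high (top ~1%) gates for expression (anti-HA) and reagent binding (streptavidin). Colony PCR, MiSeq 2 × 250 sequencing and CDR-length filtering followed. Labels for polyreactivity reflect the gate of origin.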", "values": [{"sequence": "QVQLVESGGGLVQAGGSLRLSCAASGNTFYSYAMGWYRQAPGKERELVAAITWGGRTKYADSVKGRFTISRDNAKNTVYLQMNSLKPEDTAVDYCAARLYHGKTKYDYWGQGTQVTVSS", "polyreactivity (PSR sort gate)": "high polyreactivity"}, {"sequence": "QVQLVESGGGLVQAGGSLRLSCAASGNTFYVNAMGWYRQAPGKERELVATISKRGSSTYYADSVKGRFTISRDNAKNTVFLQMNSLKPEDTAVYYCNAEGPSYYYIIYDYWGQGTQVTVSS", "polyreactivity (PSR sort gate)": "high polyreactivity"}, {"sequence": "QVQLVESGGGLVQAGGSLRLSCAASGNTFYVNVMGWYRHAPGKEREFVAAISTRGVSTSYADSVKGRFTISRDYAKNTVYLQMNRLKPEDTAVYYCAKRFLPPGRAVTYDYWGQGTQVTVSS", "polyreactivity (PSR sort gate)": "high polyreactivity"}, {"sequence": "QVQLVESGGGLVQAGGSLRLSCAASGNTFYYYAMGWYRQAPGKERELVASITWRGGDTYYADSVKGRFTISRDNAKNTVYLQMNSQKPEDTAVFYFAKPRLGRYDSMSYLGDYAGYVYWGQGTQVTLSS", "polyreactivity (PSR sort gate)": "low polyreactivity"}, {"sequence": "QVQLVESGGGLVQAGGSLRLSCAASGNTIFHYAMGWYRQAPGKERELVAAISSADSTYYADSVKGRFTISRDNAKNTVYLQMNSLKPEDTAVYYCAKDRPNRPDLYDYWGQGTQVTLSS", "polyreactivity (PSR sort gate)": "low polyreactivity"}, {"sequence": "QVQLVESGGGLVQAGGSLRLSCAASGNTIKDYTMGWYRQAPGKERELVASINSGGSTNYADSVKGRFTISRDNPKNTVYLQMNSLKPEDTAVYYSAKRAWSDYNPIDYWGQGTQVTVSS", "polyreactivity (PSR sort gate)": "low polyreactivity"}, {"sequence": "QVQLVESGGGLVQAGGSLRLSCAASGNTIYKYTMGWSRQAPGKERELVAVISSSSGSTYYADSVKGRFTISRDNAKNTVYLQMNSLKPEDTAVYYCNKRGWWDLRHDYWGQGTQVTVSS", "polyreactivity (PSR sort gate)": "low polyreactivity"}, {"sequence": "QVQLVESGGGLVQAGGSLRLSCAASGNTLAANAMGWYRQAPGKERELVAAITYSGGSTYYADSVKGRFTISRDNAKNTVYLQMSSLKPEDTAVYDCNAPYVFSAGFDYWGQGTQVTVSS", "polyreactivity (PSR sort gate)": "low polyreactivity"}, {"sequence": "QVQLVESGGGLVQAGGSLRLSCAASGNTLDAYTMGWYRQAPGKERELVAAISRGGTRTYYADSVKGRFTISRDNAKNTVYLQMNSLKPEDTAVYYCNKQFPYSKYYIMGYWGQGTQVTVSS", "polyreactivity (PSR sort gate)": "high polyreactivity"}, {"sequence": "QVQLVESGGGLVQAGGSLRLSCAASGNTLHRYVMGWYRPAPGKERELVAVITRGTSTYYADSVKGRFTISRDNAKNTVYLQMNSLKPEDTAVYYCAARYTFPYSRYDYWGQGTQVTVSS", "polyreactivity (PSR sort gate)": "low polyreactivity"}, {"sequence": "QVQLVESGGGLVQAGGSLRLSCAASGNTLQYYAMGWYRQAPGKERELVAAITTGGSTNYADSVKARFTISRDNAKNTGYLQMNSLKPEDTAVYYCAARGGVSKRISDYWGQGTQVTVSS", "polyreactivity (PSR sort gate)": "low polyreactivity"}, {"sequence": "QVQLVESGGGLVQAGGSLRLSCAASGNTLVKNAMGWYRQAPGKERELVAANSSSGGRTYYADSVKGRFTISRDNAKTTVYLQLNSLKPEDTAVYYCAARYPSGYYYWGQGTQVTVSS", "polyreactivity (PSR sort gate)": "high polyreactivity"}, {"sequence": "QVQLVESGGGLVQAGGSLRLSCAASGNTLYQYAMGWYRQAPGKERELVASITWSGSSTYYADSVKGRFTISRDNAKNTVYVQMNSLKPEDPAVYYCAAYGYHRDYLYDYWGQGTQVTVSS", "polyreactivity (PSR sort gate)": "low polyreactivity"}, {"sequence": "QVQLVESGGGLVQAGGSLRLSCAASGNTSPYSAMGWYRQAPGKEREWVAGISSGGTTNYADSVKGRFTISRDNAKNTVDLQMNSLKPVDTAVYYCAADEWYVECLGYFFAYDYWGQGTQVTVSS", "polyreactivity (PSR sort gate)": "low polyreactivity"}, {"sequence": "QVQLVESGGGLVQAGGSLRLSCAASGNTYDPNAMGWYRQAPGKERELVAAISSDGSTKYADSVKGRFTISRDNAKNTVYLQMNSLKPEDTAVYYCAADHGYWYWYGGDNSWGQGTQVTVSS", "polyreactivity (PSR sort gate)": "low polyreactivity"}, {"sequence": "QVQLVESGGGLVQAGGSLRLSCAASGNTYGYNAMGWYRQAPGKERELVASITWSGGSTYYADSVKGRFTISRDNAKNTVYLQMNSLKPEDTAVYYCNADVRYGRDHWGQGTQVTVSS", "polyreactivity (PSR sort gate)": "low polyreactivity"}, {"sequence": "QVQLVESGGGLVQAGGSLRLSCAASGPIFKRNAMGWYRQAPGKERELVAAISGSGGRTNYADSVKGRFTISRDTAKNTVYLQMNSLKPEDTAVYYCAARANFFGWPKSYYYLGQGTQVTVSS", "polyreactivity (PSR sort gate)": "high polyreactivity"}, {"sequence": "QVQLVESGGGLVQAGGSLRLSCAASGPIFLRYAIGWYRQAPGKERVLVAVISRSGSSTYYADSVKGRFTISRDNAKNTVYLQMNSLKPEDTAFYHCAAGYSWGYSSQKLRYGYLGQGTQVTVSS", "polyreactivity (PSR sort gate)": "high polyreactivity"}, {"sequence": "QVQLVESGGGLVQAGGSLRLSCAASGPILGQYAMGWYRQAPGKDRELVAAITYSGGRTYYADSVKGRFTLSRDNAKNTVYLQMNSLKPEDTAVYYCAARGRASVERRGGYYYWGQGTQVTVSS", "polyreactivity (PSR sort gate)": "high polyreactivity"}, {"sequence": "QVQLVESGGGLVQAGGSLRLSCAASGPTFFLYDMGWYRQAPGKERELVAAITSSGGDTYYADSVKGRFTISRDNAKNTVYLQMNSLKPEDTAVYYCAAEVWFPDRWMDYWGQGTQVTVSS", "polyreactivity (PSR sort gate)": "high polyreactivity"}, {"sequence": "QVQLVESGGGLVQAGGSLRLSCAASGPTFPFNAMVWYRQAPGKERELVAAISWRDGRTYYADSVKGRFTISRDNAKNTVYLQMNSLKPEDTAVYYCNVVKRRSDWGMVYWGQGTQVTVSS", "polyreactivity (PSR sort gate)": "high polyreactivity"}, {"sequence": "QVQLVESGGGLVQAGGSLRLSCAASGPTFYRYAMGWYRQAPGKERELVAAISSSGGSTYYADSVKGRFTISRDNANNTVYLQMNSLKPEDTAVYYCATGYRYASYLCNYWGHGTQVTVSS", "polyreactivity (PSR sort gate)": "high polyreactivity"}, {"sequence": "QVQLVESGGGLVQAGGSLRLSCAASGPTIDLYAMGCYRQAPGKERELVATIRSDGSTTYADSVKGRFTISRDNAKNTVYLQLNSLKPEDTAVYDCAAAFRSGFSSSTTPVQSDWGQGTQVTVSS", "polyreactivity (PSR sort gate)": "low polyreactivity"}, {"sequence": "QVQLVESGGGLVQAGGSLRLSCAASGPTLRSYAMGWYRQAPGKERELVAAITRASGARTFYADSVKGRFTISRDSAKNTVYLQMNSLKPEDSAGYYCTAVGRSDLFEYWGQGTQVTVSS", "polyreactivity (PSR sort gate)": "high polyreactivity"}, {"sequence": "QVQLVESGGGLVQAGGSLRLSCAASGQIFFVYAMGRYRQAPGKESELVAAISFSAGRTYYADSVKGRFTISRDNAKNTVYLQMNSLKPEDTAVYYCNALRQDTGHYPYDYWGQGTQVTVSS", "polyreactivity (PSR sort gate)": "low polyreactivity"}, {"sequence": "QVQLVESGGGLVQAGGSLRLSCAASGRICDYNVMGWYRQAPGKERELVADITSSGGSTYYADSVKGRFTISRDNAKNTVYLQMNSLKPEDTAVYYCYISYFTFYDDFYYWGQGTQVTVSS", "polyreactivity (PSR sort gate)": "low polyreactivity"}, {"sequence": "QVQLVESGGGLVQAGGSLRLSCAASGRICVTYAIGRYRQAPGKERELVAASTYSGGSTYYADSVKGRFTISRDNAKNTVYLQMNSLKPEDTAVYYCGWTYHYHRESWGQGTQVTVSS", "polyreactivity (PSR sort gate)": "low polyreactivity"}, {"sequence": "QVQLVESGGGLVQAGGSLRLSCAASGRIDLDYDMGWYRPAAGKERELVATISSGGSTNYADSVKGRFTISRDNAKNTVYLQMNSLKPDDTAVYYCNKDYHVRYYYWGQGTQVTVSS", "polyreactivity (PSR sort gate)": "low polyreactivity"}, {"sequence": "QVQLVESGGGLVQAGGSLRLSCAASGRIFAAYAMGWYRQAPGKERELVATITRGGSTYYADSVKGRFTISRDNAKNTVYLQMNSLKQKDTAVYYCAVKRGFTQYKPFNYWGQGTQVTVSS", "polyreactivity (PSR sort gate)": "high polyreactivity"}, {"sequence": "QVQLVESGGGLVQAGGSLRLSCAASGRIFADYAMGWYRQAPGKEREMVADIRQSGGRTYYADSVKGRFTISRDNAKNTVYLQMNSLKPEDTAVYYCATEYGSLGDYSGKYDYWGQGTQVTVSS", "polyreactivity (PSR sort gate)": "low polyreactivity"}, {"sequence": "QVQLVESGGGLVQAGGSLRLSCAASGRIFAFSAMGWSRQAPGKERELVAAISSGGSTYYADSVKGRFTISRDNAKNTVYLQMNSLKPEDTAVYYCAASGLYYYRYRYYYWGQGTQVTVSS", "polyreactivity (PSR sort gate)": "high polyreactivity"}, {"sequence": "QVQLVESGGGLVQAGGSLRLSCAASGRIFAFYAMGWYRQAPGKERELVAAITSGGSTKYADSVNGRFSISRDNAKNTVYLLMNSMKPEDTAVYYCAARYRWQFRSQYDYWGQGTQVTVSS", "polyreactivity (PSR sort gate)": "high polyreactivity"}, {"sequence": "QVQLVESGGGLVQAGGSLRLSCAASGRIFAFYVMGWYRQAPGKERELVAAITSGGNTNYADSVKGRFTISRDNAKNTVYLQMNSLKPEDTAVYYCARAWLGQYTLGTYYYWGQGTQVTVSS", "polyreactivity (PSR sort gate)": "low polyreactivity"}, {"sequence": "QVQLVESGGGLVQAGGSLRLSCAASGRIFAGNAMGWYRQAPGKERELVAAISNGGSTYYADSVKGRFTISRDNAKNTVYLQMNSLKPEDTAVYYCNARTRLRKYQYYYWGQGTQVTVSS", "polyreactivity (PSR sort gate)": "high polyreactivity"}, {"sequence": "QVQLVESGGGLVQAGGSLRLSCAASGRIFAGYAMGWSRQAPGKERELVASIRSSGSTYYADSVKGRFTISRDNAKNTVYLQMNSLKPEDTAVYYCATTGRRWYYPYHYWGQGTQVTVSS", "polyreactivity (PSR sort gate)": "high polyreactivity"}, {"sequence": "QVQLVESGGGLVQAGGSLRLSCAASGRIFAGYAMGWYRKAPGKERELVASIRSSGSTYYADSVKGRFTISRDNAKNTVYLQMNSLKPEDTAVYYCAARSGYFRSRFDYWGQGTQVTVSS", "polyreactivity (PSR sort gate)": "high polyreactivity"}, {"sequence": "QVQLVESGGGLVQAGGSLRLSCAASGRIFAGYAMGWYRQAPGKERELVATITRGGSTNYADSVKRPFTISRDNAKNTVYLQMNSLKPDDTAVYYCNADIRRHGGYAHEYWGQGTQVTVSS", "polyreactivity (PSR sort gate)": "low polyreactivity"}, {"sequence": "QVQLVESGGGLVQAGGSLRLSCAASGRIFAGYPMGWYRQAPGKERELVATFTRGGSTNYADSVKRPFTISRDNAKNSVYLQMNSLKPEDTAVYYCNAAIRRHGGYAHEYWGQGTQVTVSS", "polyreactivity (PSR sort gate)": "low polyreactivity"}, {"sequence": "QVQLVESGGGLVQAGGSLRLSCAASGRIFAGYPMGWYRQAPGKERELVATITRGGSTNYADSVKRPFTISRDNAKYTVYLQMNSLKPEDTAVYYCNADPGGRYPRRGYAHEGDYWGQGTQVTVSS", "polyreactivity (PSR sort gate)": "low polyreactivity"}, {"sequence": "QVQLVESGGGLVQAGGSLRLSCAASGRIFAHYEMGWYRQAPGKERELVAAISSGGSTYYADSVKGRFTISRDNAKNTVYLQMNSLKPEDTAVYYCNKRPVRRKYDYWGQGTQVTVSS", "polyreactivity (PSR sort gate)": "low polyreactivity"}, {"sequence": "QVQLVESGGGLVQAGGSLRLSCAASGRIFAIYAMGWYRQAPGKERELVAGITYSAGSTYYADSVKGRFTISRDNAKNTVYLQMNSLKREDTAVYYCAALEYTSHRYGYDYWGQGTQVTVSS", "polyreactivity (PSR sort gate)": "low polyreactivity"}, {"sequence": "QVQLVESGGGLVQAGGSLRLSCAASGRIFALYAMGWYRQAPGKDRELVAAITSSDGSTYYADSVKGRFTISRDIAKNSVYFQMKSLKPEDTAVYYSAAVWWRYYQDPYYYWGQGTQVTVSS", "polyreactivity (PSR sort gate)": "low polyreactivity"}, {"sequence": "QVQLVESGGGLVQAGGSLRLSCAASGRIFALYAMGWYRQAPGKERELVATITRSGTNTYYADSVKGRFTISRDNAKNTVYLQMNRLKPEDTAVYYCAAYRFWQRTMGYWGQGTQVTVSS", "polyreactivity (PSR sort gate)": "high polyreactivity"}]}]}
